Measured values as given in the supplement of paper PMC3353916.
± gives the standard deviation of the averaged measurements.

Tested on: Sindbis virus TE/5'2J-GFP
Assay: percent infected (GFP+ in RFP+ ISG-expressing cells); higher = more infection (less antiviral activity)
Experimental: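 Confirmatory testing of 87 ISGs. Triplicate wells of BHK/HA-Zeo (control) or BHK/NZAP-Zeo (ZAP) cells were transduced with lentiviruses co-expressing a human ISG plus TagRFP, then infected 48 h later with SINV TE/5'2J-GFP (moi 5). The % GFP+ cells among RFP+ cells was measured by flow cytometry at 8 h post infection. Fluc lentivirus served as control. Three independent experiments.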

[1] = experiment: confirmatory screen 1, BHK/HA-Zeo (control)
[2] = experiment: confirmatory screen 1, BHK/NZAP-Zeo (ZAP)
[3] = experiment: confirmatory screen 2, BHK/HA-Zeo (control)
[4] = experiment: confirmatory screen 2, BHK/NZAP-Zeo (ZAP)
[5] = experiment: confirmatory screen 3, BHK/HA-Zeo (control)
[6] = experiment: confirmatory screen 3, BHK/NZAP-Zeo (ZAP)
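Note: Interferon-defective BHK-21 derivatives, ZAP line overexpressing the rat ZAP N-terminal zinc finger domain fused to Zeocin resistance, GFP scored within live singlet TagRFP+ cells.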

| Sequence | percent infected [1] [%] | percent infected [2] [%] | percent infected [3] [%] | percent infected [4] [%] | percent infected [5] [%] | percent infected [6] [%] |
| --- | --- | --- | --- | --- | --- | --- |
| MKVSAAALAVILIATALCAPASASPYSSDTTPCCFAYIARPLPRAHIKEYFYTSGKCSNPAVVFVTRKNRQVCANPEKKWVREYINSLEMS [CCL5] | 95.946 ± 0.068 | 69.5 ± 4.5 | 94.757 ± 0.09 | 93.5 ± 1.5 | 92.85 ± 0.85 | 93.25 ± 0.49 |
| MLLRSKPALPPPLMLLLLGPLGPLSPGALPRPAQAQDVVDLDFFTQEPLHLVSPSFLSVTIDANLATDPRFLILLGSPKLRTLARGLSPAYLRFGGTKTDFLIFDPKKESTFEERSYWQSQVNQDICKYGSIPPDVEEKLRLEWPYQEQLLLREHYQKKFKNSTYSRSSVDVLYTFANCSGLDLIFGLNALLRTADLQWNSSNAQLLLDYCSSKGYNISWELGNEPNSFLKKADIFINGSQLGEDFIQLHKLLRKSTFKNAKLYGPDVGQPRRKTAKMLKSFLKAGGEVIDSVTWHHYYLNGRTATKEDFLNPDVLDIFISSVQKVFQVVESTRPGKKVWLGETSSAYGGGAPLLSDTFAAGFMWLDKLGLSARMGIEVVMRQVFFGAGNYHLVDENFDPLPDYWLSLLFKKLVGTKVLMASVQGSKRRKLRVYLHCTNTDNPRYKEGDLTLYAINLHNVTKYLRLPYPFSNKQVDKYLLRPLGPHGLLSKSVQLNGLTLKMVDDQTLPPLMEKPLRPGSSLGLPAFSYSFFVIRNAKVAACI [HPSE] | 97.15 ± 0.33 | 79.82 ± 0.76 | 96 ± 1.1 | 95.86 ± 0.27 | 90.1 ± 0.52 | 90.5 ± 1.7 |
| MLQRGLWPWRTRLLPTPGTWRPARPWPLPPPPQVLRVKLCGNVKYYQSHHYSTVVPPDEITVIYRHGLPLVTLTLPSRKERCQFVVKPMLSTVGSFLQDLQNEDKGIKTAAIFTADGNMISASTLMDILLMNDFKLVINKIAYDVQCPKREKPSNEHTAEMEHMKSLVHRLFTILHLEESQKKREHHLLEKIDHLKEQLQPLEQVKAGIEAHSEAKTSGLLWAGLALLSIQGGALAWLTWWVYSWDIMEPVTYFITFANSMVFFAYFIVTRQDYTYSAVKSRQFLQFFHKKSKQQHFDVQQYNKLKEDLAKAKESLKQARHSLCLQMQVEELNEKN [CCDC109B] | 92.6 ± 2.3 | 57.4 ± 2 | 97.29 ± 0.17 | 95.61 ± 0.13 | 95.11 ± 0.48 | 93.64 ± 0.74 |
| MLRAGAPTGDLPRAGEVHTGTTIMAVEFDGGVVMGSDSRVSAGEAVVNRVFDKLSPLHERIYCALSGSAADAQAVADMAAYQLELHGIELEEPPLVLAAANVVRNISYKYREDLSAHLMVAGWDQREGGQVYGTLGGMLTRQPFAIGGSGSTFIYGYVDAAYKPGMSPEECRRFTTDAIALAMSRDGSSGGVIYLVTITAAGVDHRVILGNELPKFYDE [PSMB9] | 80 ± 1.9 | 24.2 ± 0.77 | 90.2 ± 1.4 | 91.27 ± 0.32 | 87.59 ± 0.53 | 83.1 ± 1.6 |
| MLRGISQLPAVATMSWVLLPVLWLIVQTQAIAIKQTPELTLHEIVCPKKLHILHKREIKNNQTEKHGKEERYEPEVQYQMILNGEEIILSLQKTKHLLGPDYTETLYSPRGEEITTKPENMEHCYYKGNILNEKNSVASISTCDGLRGYFTHHHQRYQIKPLKSTDEKEHAVFTSNQEEQDPANHTCGVKSTDGKQGPIRISRSLKSPEKEDFLRAQKYIDLYLVLDNAFYKNYNENLTLIRSFVFDVMNLLNVIYNTIDVQVALVGMEIWSDGDKIKVVPSASTTFDNFLRWHSSNLGKKIHDHAQLLSGISFNNRRVGLAASNSLCSPSSVAVIEAKKKNNVALVGVMSHELGHVLGMPDVPFNTKCPSGSCVMNQYLSSKFPKDFSTSCRAHFERYLLSQKPKCLLQAPIPTNIMTTPVCGNHLLEVGEDCDCGSPKECTNLCCEALTCKLKPGTDCGGDAPNHTTE [ADAMDEC1] | 94 ± 2.1 | 66.9 ± 6.3 | 96.2 ± 0.17 | 95.52 ± 0.43 | 94.82 ± 0.19 | 94.56 ± 0.34 |
| MLTELEKALNSIIDVYHKYSLIKGNFHAVYRDDLKKLLETECPQYIRKKGADVWFKELDINTDGAVNFQEFLILVIKMGVAAHKKSHEESHKE [S100A8] | 80.1 ± 1.9 | 54.4 ± 3.1 | 91.3 ± 1.5 | 92.37 ± 0.69 | 82.1 ± 1.6 | 89.4 ± 1 |
| MMAQSKANGSHYALTAIGLGMLVLGVIMAMWNLVPGFSAAEKPTAQGSNKTEVGGGILKSKTFSVAYVLVGAGVMLLLLSICLSIRDKRKQRQGEDLAHVQHPTGAGPHAQEEDSQEEEEEDEEAASRYYVPSYEEVMNTNYSEARGEEQNPRLSISLPSYESLTGLDETTPTSTRADVEASPGNPPDRQNSKLAKRLKPLKVRRIKSEKLHLKDFRINLPDKNVPPPSIEPLTPPPQYDEVQEKAPDTRPPD [TMEM51] | 94.9 ± 1.4 | 61.1 ± 4.6 | 95.13 ± 0.15 | 94.94 ± 0.49 | 93.31 ± 0.41 | 92.77 ± 0.37 |
| MMFRDQVGVLAGWFKGWNECEQTVALLSLLKRVSQTQARFLQLCLEHSLADCAELHVLEREANSPGIINQWQQESKDKVISLLLTHLPLLKPGNLDAKVEYMKLLPKILAHSIEHNQHIEESRQLLSYALIHPATSLEDRSALAMWLNHLEDRTSTSFGGQNRGRSDSVDYGQTHYYHQRQNSDDKLNGWQNSRDSGICINASNWQDKSMGCENGHVPLYSSSSVPTTINTIGTSTSTILSGQAHHSPLKRSVSLTPPMNVPNQPLGHGWMSHEDLRARGPQCLPSDHAPLSPQSSVASSGSGGSEHLEDQTTARNTFQEEGSGMKDVPAWLKSLRLHKYAALFSQMTYEEMMALTECQLEAQNVTKGARHKIVISIQKLKERQNLLKSLERDIIEGGSLRIPLQELHQMILTPIKAYSSPSTTPEARRREPQAPRQPSLMGPESQSPDCKDGAAATGATATPSAGASGGLQPHQLSSCDGELAVAPLPEGDLPGQFTRVMGKVCTQLLVSRPDEENISSYLQLIDKCLIHEAFTETQKKRLLSWKQQVQKLFRSFPRKTLLDISGYRQQRNRGFGQSNSLPTAGSVGGGMGRRNPRQYQIPSRNVPSARLGLLGTSGFVSSNQRNTTATPTIMKQGRQNLWFANPGGSNSMPSRTHSSVQRTRSLPVHTSPQNMLMFQQPEFQLPVTEPDINNRLESLCLSMTEHALGDGVDRTSTI [SAMD4A] | 80.4 ± 0.93 | 12.5 ± 0.52 | 92.98 ± 0.71 | 93.39 ± 0.29 | 83.1 ± 1.3 | 84.55 ± 0.77 |
| MNMTQARVLVAAVVGLVAVLLYASIHKIEEGHLAVYYRGGALLTSPSGPGYHIMLPFITTFRSVQTTLQTDEVKNVPCGTSGGVMIYIDRIEVVNMLAPYAVFDIVRNYTADYDKTLIFNKIHHELNQFCSAHTLQEVYIELFDQIDENLKQALQKDLNLMAPGLTIQAVRVTKPKIPEAIRRNFELMEAEKTKLLIAAQKQKVVEKEAETERKKAVIEAEKIAQVAKIRFQQKVMEKETEKRISEIEDAAFLAREKAKADAEYYAAHKYATSNKHKLTPEYLELKKYQAIASNSKIYFGSNIPNMFVDSSCALKYSDIRTGRESSLPSKEALEPSGENVIQNKESTG [ERLIN1] | 94.6 ± 1.8 | 79.2 ± 1.4 | 95.84 ± 0.41 | 94.53 ± 0.57 | 91.74 ± 0.47 | 91.63 ± 0.7 |
| MNTIVFNKLSGAVLFEDGGASERERGGRPYSGVLDSPHARPEVGIPDGPPLKDNLGLRHRRTGARQNGGKVRHKRQALQDMARPLKQWLYKHRDNPYPTKTEKILLALGSQMTLVQVSNWFANARRRLKNTVRQPDLSWALRIKLYNKYVQGNAERLSVSSDDSCSEDGENPPRTHMNEGGYNTPVHHPVIKSENSVIKAGVRPESRASEDYVAPPKYKSSLLNRYLNDSLRHVMATNTTMMGKTRQRNHSGSFSSNEFEEELVSPSSSETEGNFVYRTDTLENGSNKGESAANRKGPSKDDTYWKEINAAMALTNLAQGKDKLQGTTSCIIQKSSHIAEVKTVKVPLVQQF [MKX] | 95 ± 2.1 | 82.42 ± 0.67 | 95.17 ± 0.2 | 92.86 ± 0.56 | 79 ± 1.7 | 86.15 ± 0.099 |
| MNTRNRVVNSGLGASPASRPTRDPQDPSGRQGELSPVEDQREGLEAAPKGPSRESVVHAGQRRTSAYTLIAPNINRRNEIQRIAEQELANLEKWKEQNRAKPVHLVPRRLGGSQSETEVRQKQQLQLMQSKYKQKLKREESVRIKKEAEEAELQKMKAIQREKSNKLEEKKRLQENLRREAFREHQQYKTAEFLSKLNTESPDRSACQSAVCGPQSSTWKLPILPRDHSWARSWAYRDSLKAEENRKLQKMKDEQHQKSELLELKRQQQEQERAKIHQTEHRRVNNAFLDRLQGKSQPGGLEQSGGCWNMNSGNSWGI [EPSTI1] | 96.8 ± 1.1 | 68.2 ± 2.1 | 96.8 ± 1.1 | 95.946 ± 0.041 | 94.88 ± 0.77 | 94.41 ± 0.1 |
| MPGKKARKNAQPSPARAPAELEVECATQLRRFGDKLNFRQKLLNLISKLFCSGT [PMAIP1] | 94.9 ± 1.1 | 87.9 ± 2.1 | 95.11 ± 0.24 | 93.22 ± 0.27 | 92.03 ± 0.31 | 92.36 ± 0.16 |
| MPITRMRMRPWLEMQINSNQIPGLIWINKEEMIFQIPWKHAAKHGWDINKDACLFRSWAIHTGRYKAGEKEPDPKTWKANFRCAMNSLPDIEEVKDQSRNKGSSAVRVYRMLPPLTKNQRKERKSKSSRDAKSKAKRKSCGDSSPDTFSDGLSSSTLPDDHSSYTVPGYMQDLEVEQALTPALSPCAVSSTLPDWHIPVEVVPDSTSDLYNFQVSPMPSTSEATTDEDEEGKLPEDIMKLLEQSEWQPTNVDGKGYLLNEPGVQPTSVYGDFSCKEEPEIDSPGGDIGLSLQRVFTDLKNMDATWLDSLLTPVRLPSIQAIPCAP [IRF1] | 67.2 ± 42 | 10.7 ± 6.3 | 61.6 ± 1.6 | 1.14 ± 0.73 | 29.2 ± 22 | 0.16 ± 0.079 |
| MPRQLSAAAALFASLAVILHDGSQMRAKAFPETRDYSQPTAAATVQDIKKPVQQPAKQAPHQTLAARFMDGHITFQTAATVKIPTTTPATTKNTATTSPITYTLVTTQATPNNSHTAPPVTEVTVGPSLAPYSLPPTITPPAHTTGTSSSTVSHTTGNTTQPSNQTTLPATLSIALHKSTTGQKPVQPTHAPGTTAAAHNTTRTAAPASTVPGPTLAPQPSSVKTGIYQVLNGSRLCIKAEMGIQLIVQDKESVFSPRRYFNIDPNATQASGNCGTRKSNLLLNFQGGFVNLTFTKDEESYYISEVGAYLTVSDPETIYQGIKHAVVMFQTAVGHSFKCVSEQSLQLSAHLQVKTTDVQLQAFDFEDDHFGNVDECSSDYTIVLPVIGAIVVGLCLMGMGVYKIRLRCQSSGYQRI [LAMP3] | 95.8 ± 1.7 | 52.1 ± 5.6 | 97.55 ± 0.14 | 96.16 ± 0.23 | 86.4 ± 2.6 | 89.93 ± 0.19 |
